Substrate in this data set: CCCCCCCCCCc1c(C)c(O)c(OC)c(OC)c1O
The experiment in a line: steady-state cytochrome c reduction, spectroscopic, Michaelis-Menten fit. In kind it is biochemical, Rhodobacter capsulatus. Particulars: 20 μM bovine heart cytochrome c, 50 mM Tris pH 8.0, 0.01% DDM, 100 mM NaCl, DBH2 0.5-20 μM, Qo site, turnover given as Vmax.

Changes are numbered by the printed parent chain. Numbers in names are those of the source.

B1: cytochrome bc1 (R. capsulatus bc1 complex) (Rhodobacter capsulatus) (protein)
chain 1: MSGIPHDHYEPKTGIEKWLHDRLPIVGLVYDTIMIPTPKNLNWWWIWGIVLAFTLVLQIVTGIVLAIDYTPHVDLAFASVEHIMRDVNGGWAMRYIHANGASLFFLAVYIHIFRGLYYGSYKAPREITWIVGMVIYLLMMGTAFMGYVLPWGQMSFWGATVITGLFGAIPGIGPSIQAWLLGGPAVDNATLNRFFSLHYLLPFVIAALVAIHIWAFHTTGNNNPTGVEVRRTSKADAEKDTLPFWPYFVIKDLFALALVLLGFFAVVAYMPNYLGHPDNYIQANPLSTPAHIVPEWYFLPFYAILRAFAADVWVVILVDGLTFGIVDAKFFGVIAMFGAIAVMALAPWLDTSKVRSGAYRPKFRMWFWFLVLDFVVLTWVGAMPTEYPYDWISLIASTYWFAYFLVILPLLGATEKPEPIPASIEEDFNSHYGNPAE
chain 2: MSHAEDNAGTRRDFLYHATAATGVVVTGAAVWPLINQMNASADVKAMSSIFVDVSAVEVGTQLTVKWRGKPVFIRRRDEKDIELARSVPLGALRDTSAENANKPGAEATDENRSLAAFDGTNTGEWLVMLGVCTHLGCVPMGDKSGDFGGWFCPCHGSHYDSAGRIRKGPAPRNLDIPVAAFVDETTIKLG
notes: petABC operon from plasmid pPET1, C-terminal Strep-tag on cytochrome b, expressed in R. capsulatus MT-RBC1 (host), DDM-solubilised from chromatophores, Strep-tag purified; homodimer of 3 catalytic subunits; with Cytochrome c1
For the protein B1, the Km is 2.3 ± 0.5 µM and the kcat worked out at 146 ± 9 s⁻¹.

B2: cytochrome bc1 (R. capsulatus bc1 complex) (Rhodobacter capsulatus; P0CY47:G332D) (protein)
chain 1: B1 chain 1 with G332D
chain 2: B1 chain 2
notes: as for B1
Consider B2, for which the Michaelis-Menten constant (Km) was found to be 1.1 ± 0.2 µM and the kcat came out at 45 ± 2 s⁻¹.

One may read the Km as the substrate concentration at which the rate is half of its maximum. By kcat is commonly meant the maximal rate divided by the concentration of active sites.

Source of the values: publication PMC4906154, “Mitochondrial disease-related mutations at the cytochrome b-iron–sulfur protein (ISP) interface: Molecular effects on the large-scale motion of ISP and superoxide generation studied in Rhodobacter capsulatus cytochrome bc1^” (Biochimica et Biophysica Acta, 2016).
